Source: US20240116985A1, “STAPLED PEPTIDES AND METHODS THEREOF” (priority 2020, published 2024)
Starred links: 1 amine or outer side, 2 acyl side, 3 side chain; linkers in the order of their positions; H or OH if unused. Positions of bridges follow the written chain, without caps; N, C: chain ends. Non-standard residues stand in square brackets, D forms with d. Primed or numbered codes have the meaning given here. No end group written: not given here. *: point of attachment. PyrS2″ = (S)-3-amino-1-((pent-4-en-1-yloxy)carbonyl)pyrrolidine-3-carboxylic acid (stapling residue), C=CCCCOC(=O)N1CC[C@@](N[*:1])(C(=O)[*:2])C1; B5(23) = 2-amino-2-(pent-4-en-1-yl)hept-6-enoic acid (2,2-bis(4-pentenyl)glycine), stitching residue, C=CCCCC(CCCC=C)(N[*:1])C(=O)[*:2]; B5(4) = 2,2-bis(4-pentenyl)glycine = 2-amino-2-(pent-4-en-1-yl)hept-6-enoic acid (stitching residue), C=CCCCC(CCCC=C)(N[*:1])C(=O)[*:2]; B5(5) = 2,2-bis(4-pentenyl)glycine, 2-amino-2-(pent-4-en-1-yl)hept-6-enoic acid (stitching residue), C=CCCCC(CCCC=C)(N[*:1])C(=O)[*:2]; TfeGA(3) = (S)-2-amino-3-((carboxymethyl)(2,2,2-trifluoroethyl)amino)prop[anoic acid], O=C([C@H](CN(CC(=O)[*:3])CC(F)(F)F)N[*:1])[*:2]; PyrS2 = (S)-3-amino-1-((pent-4-en-1-yloxy)carbonyl)pyrrolidine-3-carboxylic acid, C=CCCCOC(=O)N1CC[C@@](N[*:1])(C(=O)[*:2])C1; B5(7) = 2-amino-2-(pent-4-en-1-yl)hept-6-enoic acid, two olefinic side chains, C=CCCCC(CCCC=C)(N[*:1])C(=O)[*:2]; ProSAm3 = (allylsulfonyl)-D-proline, C=CCS(=O)(=O)N1CCC[C@@H]1C(=O)*; Phe(4-COOH) = N[C@@H](Cc1ccc(C(=O)O)cc1)C(=O)O; Abu(4,4,4-F3) = N[C@@H](CC(F)(F)F)C(=O)O; Ala(2-furyl) = N[C@@H](Cc1ccco1)C(=O)O; Bta = N[C@@H](Cc1csc2ccccc12)C(=O)O; αAllylPro = C=CC[C@@]1(C(=O)O)CCCN1; tBuAla = CC(C)(C)C[C@H](N)C(=O)O; 2Thi = N[C@@H](Cc1cccs1)C(=O)O; 3Thi = N[C@@H](Cc1ccsc1)C(=O)O; Cit = NC(=O)NCCC[C@H](N)C(=O)O; S8 = C=CCCCCCC[C@](C)(N)C(=O)O; Dab = NCC[C@H](N)C(=O)O; Abu = CC[C@H](N)C(=O)O; Dap = NC[C@H](N)C(=O)O; Acryloyl = C=CC(=O)*

B1: I-1567 (peptide)
peptide: Ac-[αAllylPro]D[tBuAla][B5(23)]NQAAFN[PyrS2][3Thi][Bta]Q-NH2
modifications: staple 1-4, 4-11; not fully specified; printed as Ac-PL3-Asp-Npg-B5-Asn-Gln-Ala-Ala-Phe-Asn-PyrS2-3Thi-BztA-Gln-NH2
B2: I-1576 (peptide)
peptide: [ProSAm3]D[tBuAla][B5(4)]DDAAFN[PyrS2″][3Thi][Bta]Q-NH2
modifications: staple (positions not given here); staple 4-11; not fully specified (bridges); printed as ProSAm3-Asp-Npg-B5-Asp-Asp-Ala-Ala-Phe-Asn-PyrS2-3Thi-BztA-Gln-NH2; also: staple isomer of earlier-eluting HPLC peak

These binders were tested against full-length beta-Catenin (Uniprot ID P35222) (Homo sapiens (Human)) (UniProt P35222) (assay: fluorescence polarization competition; full-length beta-catenin, competitor 5FAM-TCF4(10-53) probe).

Row | EC50 | Binder
1 | 692 nM | Ac-[αAllylPro]DI[B5(5)]D[Cit]AAFQ[S8]F[Bta]Q-NH2 (staple 1-4, 4-11; also: staple isomer, earlier eluting HPLC peak) [I-604]
2 | 5 nM | Ac-[αAllylPro]D[tBuAla][B5(7)]DDAAFQ[PyrS2][3Thi][Bta]Q-NH2 (staple 1-4, 4-11) [I-763]
3 | 289 nM | Ac-[αAllylPro]DI[B5(5)]D[Phe(4-COOH)]AAFQ[S8]F[Bta]Q-NH2 (staple 1-4, 4-11; also: staple isomer, earlier eluting HPLC peak) [I-606]
4 | 632 nM | Ac-[αAllylPro]DI[B5(5)]D[Cit]AAFQ[S8]F[Bta]Q-NH2 (staple 1-4, 4-11) [I-605]
5 | 14 nM | Ac-[αAllylPro]D[tBuAla][B5(7)]DDAAFQ[PyrS2][3Thi][Bta]Q-NH2 (staple 1-4, 4-11) [I-764]
6 | 5 nM | Ac-[αAllylPro]D[tBuAla][B5(7)]DDAAFQ[PyrS2][3Thi][Bta]H-NH2 (staple 1-4, 4-11) [I-771]
7 | 7 nM | Ac-[αAllylPro]D[tBuAla][B5(7)]DDAAFQ[PyrS2][3Thi][Bta]H-NH2 (staple 1-4, 4-11) [I-772]
8 | 253 nM | Ac-[αAllylPro]DI[B5(5)]D[Phe(4-COOH)]AAFQ[S8]F[Bta]Q-NH2 (staple 1-4, 4-11) [I-607]

The binders below were run against full-length beta-Catenin (Uniprot ID P35222) (Homo sapiens (Human)) (UniProt P35222) (assay: fluorescence polarization competition; displacement of 5FAM-TCF4(10-53) from full-length beta-catenin).
Target sequence in this assay (P35222 whole entry): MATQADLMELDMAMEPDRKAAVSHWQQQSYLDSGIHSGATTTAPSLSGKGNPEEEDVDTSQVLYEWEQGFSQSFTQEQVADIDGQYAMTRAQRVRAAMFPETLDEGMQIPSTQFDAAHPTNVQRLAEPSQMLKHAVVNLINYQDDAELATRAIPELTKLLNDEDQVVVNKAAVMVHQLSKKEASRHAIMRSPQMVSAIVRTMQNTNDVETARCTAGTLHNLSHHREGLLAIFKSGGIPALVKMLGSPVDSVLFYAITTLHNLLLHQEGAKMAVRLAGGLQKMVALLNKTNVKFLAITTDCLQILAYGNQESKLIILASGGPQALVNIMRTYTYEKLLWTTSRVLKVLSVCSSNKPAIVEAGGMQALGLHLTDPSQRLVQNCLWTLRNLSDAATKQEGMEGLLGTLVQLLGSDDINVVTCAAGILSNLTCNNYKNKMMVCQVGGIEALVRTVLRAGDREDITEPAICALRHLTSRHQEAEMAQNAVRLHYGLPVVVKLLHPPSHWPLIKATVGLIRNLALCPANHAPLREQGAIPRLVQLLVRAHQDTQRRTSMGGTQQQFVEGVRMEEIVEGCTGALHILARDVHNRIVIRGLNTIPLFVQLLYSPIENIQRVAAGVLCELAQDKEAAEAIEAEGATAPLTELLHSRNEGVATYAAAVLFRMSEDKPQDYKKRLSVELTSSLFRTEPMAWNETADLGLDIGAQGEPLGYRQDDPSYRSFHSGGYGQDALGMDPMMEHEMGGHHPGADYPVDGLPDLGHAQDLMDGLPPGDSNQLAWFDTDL

Row | EC50 | Binder
9 | 88 nM | Ac-[αAllylPro]DA[B5(4)]DEAAFQ[S8]F[Bta][Ala(2-furyl)]-NH2 (staple 1-4, 4-11) [I-490]
10 | 123 nM | Ac-[αAllylPro]DA[B5(4)]D[TfeGA(3)]AAFQ[S8]F[Bta]H-NH2 (staple 1-4, 4-11) [I-499]
11 | 5000 nM | Ac-[αAllylPro]DI[B5(4)]DDAAFQ[S8][Dap](Acryloyl)[Bta]Q-NH2 (staple 1-4, 4-11; also: earlier eluting HPLC peak (staple isomer)) [I-483]
12 | 57 nM | Ac-[αAllylPro]DI[B5(4)]DDAA[2Thi]Q[S8]F[Bta]H-NH2 (staple 1-4, 4-11) [I-489]
13 | 147 nM | Ac-[αAllylPro]DA[B5(4)]DEAA[2Thi]Q[S8]F[Bta]Q-NH2 (staple 1-4, 4-11; also: earlier eluting HPLC peak (staple isomer)) [I-486]
14 | 94 nM | Ac-[αAllylPro]D[Abu(4,4,4-F3)][B5(4)]DEAAFQ[S8]F[Bta]Q-NH2 (staple 1-4, 4-11; also: earlier eluting HPLC peak (staple isomer)) [I-501]
15 | 118 nM | Ac-[αAllylPro]DI[B5(4)]DDAAFQ[S8]F[Bta][Dab]-NH2 (staple 1-4, 4-11) [I-482]
16 | 5000 nM | Ac-[αAllylPro]DI[B5(4)]DDAAFQ[S8][Dap](Acryloyl)[Bta]Q-NH2 (staple 1-4, 4-11; also: later eluting HPLC peak (staple isomer)) [I-484]
17 | 45 nM | Ac-[αAllylPro]DA[B5(4)]DEAA[2Thi]Q[S8]F[Bta]Q-NH2 (staple 1-4, 4-11; also: later eluting HPLC peak (staple isomer)) [I-487]
18 | 176 nM | Ac-[αAllylPro]DI[B5(4)]D[TfeGA(3)]AAFQ[S8]F[Bta]H-NH2 (staple 1-4, 4-11) [I-500]
19 | 43 nM | Ac-[αAllylPro]DI[B5(4)]DEAA[2Thi]Q[S8]F[Bta]H-NH2 (staple 1-4, 4-11) [I-488]
20 | 43 nM | Ac-[αAllylPro]D[Abu][B5(4)]DEAAFN[S8]F[Bta]Q-NH2 (staple 1-4, 4-11) [I-474]
21 | 121 nM | Ac-[αAllylPro]D[Abu][B5(4)]DEAAFN[S8]F[Bta]Q-NH2 (staple 1-4, 4-11) [I-473]

What follows are binders tested against full-length beta-Catenin (Uniprot ID P35222) (Homo sapiens (Human)) (UniProt P35222) (assay: fluorescence polarization competition; full-length beta-catenin, 5FAM-TCF4(10-53) probe as competitor).
Target sequence in this assay (P35222 2-781 limits assumed): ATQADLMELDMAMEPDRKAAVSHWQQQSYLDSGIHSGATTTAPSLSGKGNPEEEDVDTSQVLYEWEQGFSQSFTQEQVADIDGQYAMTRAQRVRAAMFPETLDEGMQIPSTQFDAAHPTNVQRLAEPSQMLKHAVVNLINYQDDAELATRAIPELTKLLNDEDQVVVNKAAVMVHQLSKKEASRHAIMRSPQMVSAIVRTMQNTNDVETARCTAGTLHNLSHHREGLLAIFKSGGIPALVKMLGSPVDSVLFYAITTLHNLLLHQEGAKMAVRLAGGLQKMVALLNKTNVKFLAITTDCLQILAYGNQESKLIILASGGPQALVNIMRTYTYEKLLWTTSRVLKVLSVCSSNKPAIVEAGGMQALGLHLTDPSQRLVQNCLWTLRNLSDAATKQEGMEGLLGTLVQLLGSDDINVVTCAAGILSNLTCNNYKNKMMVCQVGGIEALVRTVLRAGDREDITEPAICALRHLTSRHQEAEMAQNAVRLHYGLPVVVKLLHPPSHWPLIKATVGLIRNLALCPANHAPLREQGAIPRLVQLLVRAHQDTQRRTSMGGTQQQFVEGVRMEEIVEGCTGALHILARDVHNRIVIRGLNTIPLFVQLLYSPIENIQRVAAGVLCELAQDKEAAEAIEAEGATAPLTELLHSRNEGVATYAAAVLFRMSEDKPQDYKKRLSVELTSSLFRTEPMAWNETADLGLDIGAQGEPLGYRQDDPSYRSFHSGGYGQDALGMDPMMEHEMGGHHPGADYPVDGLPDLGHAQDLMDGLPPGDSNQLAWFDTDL

Row | IC50 | Binder
22 | 368 nM | Ac-[αAllylPro]D[tBuAla][B5(4)]QNAAFN[PyrS2][3Thi][Bta]Q-NH2 (staple 1-4, 4-11) [I-1560]
23 | 5020 nM | Ac-[αAllylPro]D[tBuAla][B5(4)]LNAAFN[PyrS2][3Thi][Bta]Q-NH2 (staple 1-4, 4-11; also: staple isomer of earlier-eluting HPLC peak) [I-1562]
24 | 1340 nM | Ac-[αAllylPro]D[tBuAla][B5(4)]NLAAFN[PyrS2][3Thi][Bta]Q-NH2 (staple 1-4, 4-11) [I-1570]
25 | 2660 nM | Ac-[αAllylPro]D[tBuAla][B5(4)]NYAAFN[PyrS2][3Thi][Bta]Q-NH2 (staple 1-4, 4-11; also: staple isomer of later-eluting HPLC peak) [I-1569]
26 | 385 nM | Ac-[αAllylPro]DA[B5(23)]NNAAFN[PyrS2][3Thi][Bta]Q-NH2 (staple 1-4, 4-11) [I-1556]
27 | 9680 nM | Ac-[αAllylPro]D[tBuAla][B5(4)]TNAAFN[PyrS2][3Thi][Bta]Q-NH2 (staple 1-4, 4-11) [I-1559]
28 | 678 nM | Ac-[αAllylPro]D[tBuAla][B5(4)]QQAAFN[PyrS2][3Thi][Bta]Q-NH2 (staple 1-4, 4-11) [I-1558]
29 | 342 nM | Ac-[αAllylPro]D[tBuAla][B5(23)]NNAAFL[PyrS2][3Thi][Bta]Q-NH2 (staple 1-4, 4-11) [I-1557]
30 | 182 nM | B1
31 | 231 nM | Ac-[αAllylPro]D[tBuAla][B5(23)]NQAAFN[PyrS2][3Thi][Bta]Q-NH2 (staple 1-4, 4-11; also: earlier-eluting HPLC staple isomer) [I-1566]
32 | 2850 nM | Ac-[αAllylPro]D[tBuAla][B5(4)]LNAAFN[PyrS2][3Thi][Bta]Q-NH2 (staple 1-4, 4-11; also: staple isomer of later-eluting HPLC peak) [I-1563]
33 | 224 nM | B2
34 | 2600 nM | Ac-[αAllylPro]D[tBuAla][B5(4)]SNAAFN[PyrS2][3Thi][Bta]Q-NH2 (staple 1-4, 4-11) [I-1561]
35 | 7180 nM | Ac-[αAllylPro]D[tBuAla][B5(4)]NYAAFN[PyrS2][3Thi][Bta]Q-NH2 (staple 1-4, 4-11; also: staple isomer of earlier-eluting HPLC peak) [I-1568]

Each binder was assayed against full-length beta-Catenin (Uniprot ID P35222) (Homo sapiens (Human)) (UniProt P35222) (assay: fluorescence polarization competition; full-length beta-catenin with 5FAM-TCF4(10-53) probe as competitor).

Row | IC50 | Binder
36 | 692 nM | Ac-[αAllylPro]DI[B5(5)]D[Cit]AAFQ[S8]F[Bta]Q-NH2 (staple 1-4, 4-11; also: staple isomer, earlier eluting HPLC peak) [I-604]
37 | 5 nM | Ac-[αAllylPro]D[tBuAla][B5(7)]DDAAFQ[PyrS2][3Thi][Bta]Q-NH2 (staple 1-4, 4-11) [I-763]
38 | 289 nM | Ac-[αAllylPro]DI[B5(5)]D[Phe(4-COOH)]AAFQ[S8]F[Bta]Q-NH2 (staple 1-4, 4-11; also: staple isomer, earlier eluting HPLC peak) [I-606]
39 | 88 nM | Ac-[αAllylPro]DA[B5(4)]DEAAFQ[S8]F[Bta][Ala(2-furyl)]-NH2 (staple 1-4, 4-11) [I-490]
40 | 632 nM | Ac-[αAllylPro]DI[B5(5)]D[Cit]AAFQ[S8]F[Bta]Q-NH2 (staple 1-4, 4-11) [I-605]
41 | 14 nM | Ac-[αAllylPro]D[tBuAla][B5(7)]DDAAFQ[PyrS2][3Thi][Bta]Q-NH2 (staple 1-4, 4-11) [I-764]
42 | 123 nM | Ac-[αAllylPro]DA[B5(4)]D[TfeGA(3)]AAFQ[S8]F[Bta]H-NH2 (staple 1-4, 4-11) [I-499]
43 | 5 nM | Ac-[αAllylPro]D[tBuAla][B5(7)]DDAAFQ[PyrS2][3Thi][Bta]H-NH2 (staple 1-4, 4-11) [I-771]
44 | 5000 nM | Ac-[αAllylPro]DI[B5(4)]DDAAFQ[S8][Dap](Acryloyl)[Bta]Q-NH2 (staple 1-4, 4-11; also: earlier eluting HPLC peak (staple isomer)) [I-483]
45 | 57 nM | Ac-[αAllylPro]DI[B5(4)]DDAA[2Thi]Q[S8]F[Bta]H-NH2 (staple 1-4, 4-11) [I-489]
46 | 147 nM | Ac-[αAllylPro]DA[B5(4)]DEAA[2Thi]Q[S8]F[Bta]Q-NH2 (staple 1-4, 4-11; also: earlier eluting HPLC peak (staple isomer)) [I-486]
47 | 94 nM | Ac-[αAllylPro]D[Abu(4,4,4-F3)][B5(4)]DEAAFQ[S8]F[Bta]Q-NH2 (staple 1-4, 4-11; also: earlier eluting HPLC peak (staple isomer)) [I-501]
48 | 118 nM | Ac-[αAllylPro]DI[B5(4)]DDAAFQ[S8]F[Bta][Dab]-NH2 (staple 1-4, 4-11) [I-482]
49 | 5000 nM | Ac-[αAllylPro]DI[B5(4)]DDAAFQ[S8][Dap](Acryloyl)[Bta]Q-NH2 (staple 1-4, 4-11; also: later eluting HPLC peak (staple isomer)) [I-484]
50 | 45 nM | Ac-[αAllylPro]DA[B5(4)]DEAA[2Thi]Q[S8]F[Bta]Q-NH2 (staple 1-4, 4-11; also: later eluting HPLC peak (staple isomer)) [I-487]
51 | 176 nM | Ac-[αAllylPro]DI[B5(4)]D[TfeGA(3)]AAFQ[S8]F[Bta]H-NH2 (staple 1-4, 4-11) [I-500]
52 | 43 nM | Ac-[αAllylPro]DI[B5(4)]DEAA[2Thi]Q[S8]F[Bta]H-NH2 (staple 1-4, 4-11) [I-488]
53 | 43 nM | Ac-[αAllylPro]D[Abu][B5(4)]DEAAFN[S8]F[Bta]Q-NH2 (staple 1-4, 4-11) [I-474]
54 | 7 nM | Ac-[αAllylPro]D[tBuAla][B5(7)]DDAAFQ[PyrS2][3Thi][Bta]H-NH2 (staple 1-4, 4-11) [I-772]
55 | 121 nM | Ac-[αAllylPro]D[Abu][B5(4)]DEAAFN[S8]F[Bta]Q-NH2 (staple 1-4, 4-11) [I-473]
56 | 253 nM | Ac-[αAllylPro]DI[B5(5)]D[Phe(4-COOH)]AAFQ[S8]F[Bta]Q-NH2 (staple 1-4, 4-11) [I-607]
